From the domain aggregation screens of Martell et al. (2025)

Experiment: soluble fraction after stress (log2 fold change); higher = more stays soluble; pooled small domains, quantitative proteomics
Conditions: stress: pH 4
Outline: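 Aggregation propensity is read out as the fold change in how much of each domain remains soluble after acid stress. The custom small-domain libraries were pooled, held at pH 4 and analysed with high-throughput quantitative proteomics. On the log2 scale used, higher values mean more of the domain stayed soluble.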

| Sequence | soluble fraction (log2) |
| --- | --- |
| HMKLRYRTQEELLGVAREYRRRGLPLSVIVIDFYHWTKFGDWKFDPAYWPDPVGMVRELRDMGVEAAV | 0.22 |
| HMLTPQEIGSRLKLVRQGLQLKQQEVAEIIGTSQLKISKIEQGATVTTPDFLKLLAFYSQSVSLDILF | -0.652 |
| HMGRSARVQQAVHQAVRALLEENDGERSALSVPLVAERAGVNSSTIYRRWGDLPRLLAAVASN | 0.0284 |
| HMLAGKTYEVQTESGGKWTLVASYNVKSQAIQQAQALLESHKYSGVKVIAESDRKGEEVIFNEQSEVT | 0.104 |
| HMPKLVGEVMQTLDALRREKGLSLLLVEQNARAALGVVDRVYVLERGRVVFEGSAKEAMEDQDVMEFYLG | 0.0193 |
| HMKASTRELLDFVLSQRGVSTASVAKALGISVQNASTRLKKLSNEGLIIRSEASSLTGGIEFLYS | 0.0289 |
| HMWTKKELWNAIAKLPKKQRTVVMMRIAQNLPYKDISEITGMSIGSAKVNYHHAVNSLKQWLS | 0.22 |
| HMHRTMFYLDVDLAEGQSVKMAVHEDDDPGELAARFADEHQLKSRAMEKLRSVIEENVRLHRRNQ | -0.306 |
| HMTVVSVDDQASASSEAIRTKVAGDSAARMSVDAGGKITWGAGSASGDVTLYRSAANTLKTDDTLVAT | 0.109 |
| HMGSWEDALKNWVDSALASGQKGILEQAVPKFERIMIETALTHTAGRRRDASLLLGWGRNTLTRKIKELGI | 0.0465 |
| HMTAFEPYLVKVMASVLNIRKGPGTSYAITGQIKDKGTYTIVAESGSWGKLKSGAGWISLSYTSKAGKA | -0.591 |
| HMLRQVSDSNALETAVKKVLDANPEEVERYKSGNKKLISFFVGQTMKATKGAGNPKEINSILAKLL | 0.201 |
| HMEISLAETLRSSLHMILGWYQNTGDKKLLELIRLHLQAYVNTGNSLNPEMEEIRAALETLGEGKEAFRP | -1.02 |
| HMYRWSEEIFEKLRSDIMAALDLSREQNDEEIYRFIETEVEEYSQNNLLTLKEREQLEHLLFNSL | -1.12 |
| HMSIEHVPGYTTLSKREQEIVHALLTRKTPEELADDLSISINTLNKHISHIYHKLGIRGRMQLFDYA | -0.0894 |
| HMVFSNLGSRGEEVRQIQTKLKELGYLQGNVDGIYGNQTKQAVTAFQRDHGLSADGIAGEKTLAALGIG | 0.105 |
| HMNIVKGDTTANVRVVQQRLYNLGYYTYKVDGIWGTRTKTAVKKFQKDKGLVADGIVGAKTEKALGITLT | -0.252 |
| HMEELTDSELNNLYRELFIARSNASDGVGIIEQKTIKGITYRLSNDNNYLIKELGNKEYIYKNGVWEEYT | 0.0623 |
| HMSRYQDIANDIEKDIIEKKYTRKLPEQFELAQKYQTSRVTIVHALKILQNKKLIRTVKGHGTFITS | ≥ 0.43 |
| HMTFSDKIRELRKQKGVSQAVVAEYLGITKQAYSLYETGKREPDFDSLLKLAEYFGTDTDSLLY | -0.379 |
| HMNETTVPDVINQNISTGKIIIEDADLEYRIQYIPSEKSSSIGTIINSIPIYGKRVKSGTIVDLKVLG | -0.34 |
| HMNVWGLSERELEATRLLIEGFSSKEASARMGISPSTVRSLWGRARAKMGVDSIEDARELVA | -0.273 |
| HMYLEARVKSTTPILSKPNELGKSLGKLYTNDFVALVSLHKNGLDSYYRTANGGYINAADVVIDRDV | -0.133 |
| HMEQRREEFILLAKELLEKELRKQNLEVHENLKPDVLNDVAKRLGMVSMDDLLAAVGDGKITPGTVVSKIV | -0.389 |
| HMFKLPRTIGTFEDSDVVIGAGKFGPYIMHNKKFVSLPKSEDPLTIGLERAIELISAKREQEKQRH | 0.237 |
| HMQLGEEAGDELVAIVRSVINDNDKALADYLAGKSSALKFLLGQVMRQTKGRADHALVQSLLEAELEAL | -0.586 |
| HMVEIGENIKKLRKAKRMTQKEVANQLNVTPQTISKWERNISYPDLDMLVKLSQLFHISTDALL | ≥ 0.43 |
| HMSGILINGELYKPGEQMSLKQRLSIQARIQMQGEDTVKPEMLKDFYNSGGPLSKEESSEYMKSQN | -0.321 |

| Sequence | soluble fraction (log2) |
| --- | --- |
| HMRDGHEQLQGVLSAIKFHQANFLIGVLDDGTTVKGNMLSPQVGLEYTFRGRRERHPRWGEQFAFMDYRV | -1.82 |
| HMASLIGEEKALQIALEHAGVALENVAYSQVKLENDDGRWEYDTEFYSGSKEYDYEIDASTGEILGYDHD | -0.0579 |
| HMSIEIKTIDVKHADLFQLQDILRNLYPELNIVPDQRNNKLILQGKRELLVEAERLTLQLDTE | -1.29 |
| HMRLANGIGTVYKLSGNRRNPYIVRKTTGWEIDEESGKAKQKYITIGYAPTRAKGLEMLMDYNKNP | 0.22 |
| HMDAVTPVLSRIRDARFKRMVLPGDEIEISVTLIDTIGKFFNLSGQIRNKDKISLTVNFALALV | 0.0905 |
| HMPDTETLTPRQRQILDLVQELGFTTIETLAERFGVSAQTVRREIIRLQAGNFLQRFHGGAGLASGGIRSA | -0.325 |
| HMQPDYRVLYSNFSDKDGGAIVAALEKMNVPYKFSEGGSAILVPAGQVHQARLKLAADGLPK | 0.205 |
| HMLSSAAAIDRILAGGTAAMNHRQFDAALTSFNTVIEMRPDFAEGWNKRATLYYLIGEYERSIADVERTLA | 0.0555 |
| HMHDIPDITDLRPLRHTLGLTLAHAAQQLNTTTATISRLERGQHRNDHLATTYRTWLHTHPT | 0.08 |
| HMDGIRLYPGLMIEHKNFGRGQVVSVNRERGTFTAFFGKNGTRTLTIQILKTDTVRPLASQKAGK | -0.405 |
| HMVDPAEASKRAREYLDALPADDLKDVIRQFSATLAEGSVVLGYFQRSGLKSKVVKTALEQFVASTILSK | -0.268 |
| HMKSPVKLILRGSIYHIKISAVVNGQRIFVRESSHTTDKREAEQYANKRFAQLVEETEFRTN | -0.907 |
| HMRDAKSQLQEALQKSGRLPEYELVSVEGPPHAPVFTYRVRIDGAVVGEGQGASKQAAQQAAAQSALKSG | 0.22 |
| HMQDLAKRWVEEFGDLLYKYTLPRVSDSGIAKDLVQETFLAAWRNIDNFKGEASEKNWLFTILKNKIIDH | -0.585 |
| HMTYTGTVTGVDEGGLRVRSSTSTENTSNVITKVYTGDTFDVLDTVYNGSAKWYKIGFTYNGTYTYGYVSA | -0.518 |
| HMEAISSESIKKMIKSYVSGEDASKPLSDQQIADLLVKEGYMISRRTVAKYRDELGILSSSKRKR | ≥ 0.43 |
| HMNDMPELLSIKEASQWATEYLNKNVTTSNIAYLIQYGRIRKIGNNGSTQVLKDDLVKYYKDQK | -0.0394 |
| HMTLGQHIQALRKEAGYSQEALGEALGVTRQSISKWESDQAIPEVDKLVTLSRLFQVPVGVLLQVEQP | -0.166 |
| HMQISDEGELSGIVRKIIDANPQSVADYKAGKKKAIGFLVGQIMIETKGRANPASVNELLIKKLE | 0.105 |
| HMNKPLFVYPNPVHQGKINLSKATNFMVVDLLGQTVNKTNYGKDFSIDNLPNGVYFIKTTEGEIIKFMK | -0.496 |
| HMLPEGIENGDVLTRTDALDYRKWLVTGNQKRIFASTASFYGENFNYSEVKAVSDRVLDAIPDGEPV | -0.549 |
| HMDSILSIVGGEESYKALLAWAENNISQQELQQLETILKSGNVPAIKRVLVTLMNRFNQAQS | -0.547 |
| HMVITATYTDFMDALEADEVKQVQFSSTEINYTIEKGGHVQYFKTGVVDNPQLPQILREKGVTYAAEIP | -0.023 |
| HMAVPFTIDVSQNGRYFIEEDNQVVEVSIGFLEDRFLRIIKSNPDIEVIIRGDAKASYESIAELLAVLQ | -0.782 |
| HMIKKAILPVAGLGTRFLPASKSIPKEMVTVVDRPAIEYVVREAVEAGIEQIILVTHSSKASIENYFDR | -0.217 |
| HMDEMPVEFVKISIKAGHPWENRKIKDLASLPDLLLVLILRGEERIIPNGNTVVLAGDKIVLSALSPE | -1.94 |
| HMAKKDVESTLGGRLRVARVRAGLTQVELARMLGMNSVSLSNVEGGRRGLSMKQLVRVAKILEVPVAYLLG | 0.151 |
